Substitutions are numbered along the chain they refer to.
B1: VHH6 Y57A (VHH)
VHH: ELQLVESGGGLVQPGGSLSLSCEVSGFSFDDVDNFIIAWFRQAPGKEREGVSFLRKADMSTYYAESVKGRFTISSDNARDTVYLQMTNLKPEDTAVYYCALDREGFVFEQGMDFWGKGTQVTVSS
notes: source: E. coli BL21(DE3), purified as the WT (Ni-NTA, SEC)
B2: VHH6 (VHH)
VHH: B1 VHH with A57Y
notes: also called WT VHH6; WT; source: E. coli BL21(DE3), pRA2 vector with PelB signal peptide, purified (Ni-NTA, SEC)
B3: VHH35 (VHH)
VHH: B1 VHH with E1Q, A57Y
notes: also called VHH number 35; hit clone 35; source: E. coli BL21(DE3), pRA2 vector with PelB signal peptide, purified (Ni-NTA, SEC)
B4: VHH6 E104A (VHH)
VHH: B1 VHH with A57Y, E104A
notes: as for B1
B5: VHH6 F108A (VHH)
VHH: B1 VHH with A57Y, F108A
notes: as for B1
B6: VHH6 R55A (VHH)
VHH: B1 VHH with R55A, A57Y
notes: as for B1
B7: VHH6 F106A (VHH)
VHH: B1 VHH with A57Y, F106A
notes: as for B1
B8: VHH6 V107A (VHH)
VHH: B1 VHH with A57Y, V107A
notes: as for B1
B9: VHH6 Y62A (VHH)
VHH: B1 VHH with A57Y, Y62A
notes: as for B1
B10: VHH6 D33A (VHH)
VHH: B1 VHH with D33A, A57Y
notes: as for B1

Target: T1, IsdH linker-NEAT3 (Staphylococcus aureus Mu50, UniProt Q931P4)
Test: SPR
Conditions: both partners purified

B1 was tested. Which koff did it give?
Its koff is 144 s⁻¹.

Target: T2, IsdH NEAT3 (Staphylococcus aureus (Mu50 for the …, UniProt Q931P4))
T2 construct: also called NEAT3 domain (no linker)
Test: SPR
Conditions: both partners purified

B2 was tested. Which Kd did it give?
The Kd was 638 nM.

Target: T1, IsdH linker-NEAT3
Test: ITC
Conditions: both partners purified

Which results are given for B2?
dH: -17.1 kcal/mol; stoichiometry N: 1.1 mol:mol

What does the source list for B3?
dH: -16 kcal/mol; stoichiometry N: 0.98 mol:mol

Target: T2, IsdH NEAT3
Test: ITC
Conditions: both partners purified

For B2, which dH is on record?
The dH was -11.9 kcal/mol.

What about the “stoichiometry N” value of the same binder?
The value was 0.9 mol:mol.

How did the dH turn out when B3 was run?
Its dH is -17 kcal/mol.

What about the “stoichiometry N” value of the same binder?
The value was 1.02 mol:mol.

Target: T1, IsdH linker-NEAT3
Test: SPR
Conditions: both partners purified
Remark: another data set of the same source

Which results are given for B2?
Kd: 0.53 nM; koff: 4.2e-05 s⁻¹; kon: 81000 M⁻¹ s⁻¹

Which Kd does the source give for B3 here?
Its Kd is 0.53 nM.

And the koff?
Its koff is 3.5e-05 s⁻¹.

And the kon?
Its kon is 66000 M⁻¹ s⁻¹.

Target: T2, IsdH NEAT3
Test: SPR
Conditions: both partners purified
Remark: another data set of the same source

Which results are given for B2?
Kd: 637 nM; koff: 0.0235 s⁻¹; kon: 37000 M⁻¹ s⁻¹

With B3 as the binder, how does the Kd read?
The Kd was 237 nM.

And the koff?
Its koff is 0.00918 s⁻¹.

What about the kon of the same binder?
The kon was 39000 M⁻¹ s⁻¹.

Target: T1, IsdH linker-NEAT3
Test: ITC
Conditions: both partners purified
Remark: another data set of the same source

Which results are given for B4?
dH: -13.6 kcal/mol; stoichiometry N: 0.99 mol:mol

Which dH does the source give for B5 here?
Its dH is -19.3 kcal/mol.

And the “stoichiometry N” value?
The value was 0.97 mol:mol.

What does the source list for B6?
dH: -15.9 kcal/mol; stoichiometry N: 0.94 mol:mol

B7 was tested. Which dH did it give?
Its dH is -16.6 kcal/mol.

And the “stoichiometry N” value?
Its value is 1.01 mol:mol.

B8 was tested. Which dH did it give?
The dH was -15.9 kcal/mol.

What about the “stoichiometry N” value of the same binder?
The value was 0.96 mol:mol.

B9 was tested. Which dH did it give?
Its dH is -11.1 kcal/mol.

What about the “stoichiometry N” value of the same binder?
Its value is 0.93 mol:mol.

What does the source list for B1?
dH: -9.7 kcal/mol; stoichiometry N: 1.03 mol:mol

Which dH does the source give for B10 here?
The dH was -14.7 kcal/mol.

And the “stoichiometry N” value?
The value was 1.01 mol:mol.

Target: T1, IsdH linker-NEAT3
Test: SPR
Conditions: both partners purified
Remark: another data set of the same source

What does the source list for B4?
Kd: 6.4 nM; koff: 0.00142 s⁻¹; kon: 151000 M⁻¹ s⁻¹

With B5 as the binder, how does the Kd read?
Its Kd is 2.6 nM.

And the koff?
Its koff is 0.00049 s⁻¹.

And the kon?
Its kon is 189000 M⁻¹ s⁻¹.

What does the source list for B6?
Kd: 25.4 nM; koff: 0.00855 s⁻¹; kon: 284000 M⁻¹ s⁻¹

How did the Kd turn out when B7 was run?
The Kd was 3.1 nM.

What about the koff of the same binder?
Its koff is 0.00031 s⁻¹.

And the kon?
Its kon is 99000 M⁻¹ s⁻¹.

How did the Kd turn out when B8 was run?
The Kd was 9.7 nM.

What about the koff of the same binder?
Its koff is 0.00105 s⁻¹.

And the kon?
The kon was 109000 M⁻¹ s⁻¹.

With B9 as the binder, how does the Kd read?
Its Kd is 45.4 nM.

And the koff?
The koff was 0.00207 s⁻¹.

What about the kon of the same binder?
The kon was 46000 M⁻¹ s⁻¹.

What does the source list for B1?
Kd: 114 nM; koff: 0.0144 s⁻¹; kon: 126000 M⁻¹ s⁻¹

B10 was tested. Which Kd did it give?
Its Kd is 2.08 nM.

And the koff?
The koff was 0.00013 s⁻¹.

What about the kon of the same binder?
The kon was 62000 M⁻¹ s⁻¹.

Target: T3, IsdB linker-NEAT2 (Staphylococcus aureus Mu50 (by deposit …))
Test: ITC
Conditions: both partners purified

With B2 as the binder, how does the dH read?
The dH was -24.2 kcal/mol.

And the “stoichiometry N” value?
Its value is 0.8 mol:mol.

Target: T3, IsdB linker-NEAT2
Test: SPR
Conditions: both partners purified

How did the Kd turn out when B2 was run?
Its Kd is 0.25 nM.

What about the koff of the same binder?
The koff was 4e-05 s⁻¹.

And the kon?
The kon was 160000 M⁻¹ s⁻¹.

From article PMC10466926 (The Journal of Biological Chemistry, 2023)
